What all share (experiment): SPOT array
The target in experiment [1] is T1, Boi1 SH3 (BOI1_YEAST), P38041.
T1 chain: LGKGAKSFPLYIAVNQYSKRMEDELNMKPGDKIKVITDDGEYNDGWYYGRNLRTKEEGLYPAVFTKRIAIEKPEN

Experiment [2] concerns the target T2, Yfr024 SH3 (LSB3_YEAST), P43603.
T2 chain: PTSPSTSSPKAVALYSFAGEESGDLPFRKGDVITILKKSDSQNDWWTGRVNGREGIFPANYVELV

Experiment [3] addresses Sho1 SH3 (SHO1_YEAST), P40073.
Experiment [4] has as its target T3, Myo5 SH3 (MYO5_YEAST), Q04439.
T3 chain: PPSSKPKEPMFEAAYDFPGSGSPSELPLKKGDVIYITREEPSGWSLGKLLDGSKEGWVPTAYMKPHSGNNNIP

The target in experiment [5] is T4, Boi2 SH3 (BOI2_YEAST), P39969.
T4 chain: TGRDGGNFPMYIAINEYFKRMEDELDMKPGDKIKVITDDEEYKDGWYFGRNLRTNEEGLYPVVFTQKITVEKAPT

Experiment [6] deals with T5, Yhr016c SH3 (YSC84_YEAST), P32793.
T5 chain: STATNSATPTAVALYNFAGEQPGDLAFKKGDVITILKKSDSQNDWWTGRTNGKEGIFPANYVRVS

Experiment [7] concerns the target T6, Rvs167 SH3 (RV167_YEAST), P39743.
T6 chain: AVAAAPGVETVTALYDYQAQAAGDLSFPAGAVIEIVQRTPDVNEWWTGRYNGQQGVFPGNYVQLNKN

Sho1 SH3 (SHO1_YEAST), P40073, sequence (P40073 295-366): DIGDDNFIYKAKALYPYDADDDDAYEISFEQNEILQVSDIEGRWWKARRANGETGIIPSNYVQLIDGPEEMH

B1: YFL004W 130-143 (peptide)
chain: KKHDKLYPKYPSVK
Consider B1, for which the normalised SPOT signal, Boehringer light units (BLU); mean over the file's lines of this peptide was found to be 435 in experiment [1]; 184 in experiment [2]; 114 in experiment [3]; 340 in experiment [4]; 16.5 in experiment [5]; 37.6 in experiment [6]. This molecule yielded a normalised SPOT signal, Boehringer light units (BLU); mean over the file's lines of this peptide in experiment [7] of 61.3.

B2: YNL297C 1291-1304 (peptide)
chain: KITKKLGPKLPKAS
Consider B2, for which the normalised SPOT signal, Boehringer light units (BLU); mean over the file's lines of this peptide in experiment [1] was 198; in experiment [2], 490; in experiment [3], 47.2; in experiment [4] it was 681; in experiment [5], 21; in experiment [6], 43.5. Moreover, the normalised SPOT signal, Boehringer light units (BLU); mean over the file's lines of this peptide in experiment [7] is 187.

B3: YPL019C 129-142 (peptide)
chain: KKHDKLHPNYPSVK
In the case of B3, the normalised SPOT signal, Boehringer light units (BLU); mean over the file's lines of this peptide in experiment [1] turned out to be 674; in experiment [2] it was 164; in experiment [3], 72.4; in experiment [4], 407; in experiment [5], 33.3; in experiment [6], 12.6. This molecule returned a normalised SPOT signal, Boehringer light units (BLU); mean over the file's lines of this peptide in experiment [7] of 415.

B4: YDR364C 152-165 (peptide)
chain: KKVIRNYPGHPEGT
For B4, the normalised SPOT signal, Boehringer light units (BLU); mean over the file's lines of this peptide was found to be 582 in experiment [1]; 34.3 in experiment [2]; 64.4 in experiment [3]; 418 in experiment [4]; 24.6 in experiment [5]; 14 in experiment [6]. The molecule also yielded a normalised SPOT signal, Boehringer light units (BLU); mean over the file's lines of this peptide in experiment [7] of 29.

B5: YDR464W 649-662 (peptide)
chain: KIVERGPPYPPDLR
As for B5, the normalised SPOT signal, Boehringer light units (BLU); mean over the file's lines of this peptide in experiment [1] was 74.9; in experiment [2] it was 93.1; in experiment [3], 14.8; in experiment [4], 138; in experiment [5], 4.7; in experiment [6], 20.3. In experiment [7], this molecule registered a normalised SPOT signal, Boehringer light units (BLU); mean over the file's lines of this peptide of 102.

B6: YPL214C 146-159 (peptide)
chain: KKNPKKSPMGPQGA
As to B6, the normalised SPOT signal, Boehringer light units (BLU); mean over the file's lines of this peptide in experiment [1] came out at 725; in experiment [2], 291; in experiment [3], 136; in experiment [4], 1010; in experiment [5], 66.4; in experiment [6], 70.6. Besides, the normalised SPOT signal, Boehringer light units (BLU); mean over the file's lines of this peptide in experiment [7] stood at 143.

B7: YDR407C 838-851 (peptide)
chain: KLKIKILPEQPQLE
On to B7, for which the normalised SPOT signal, Boehringer light units (BLU); mean over the file's lines of this peptide in experiment [1] stood at 1350; in experiment [2] it was 6; in experiment [3], 548; in experiment [4], 261; in experiment [5], 0; in experiment [6], 17.7. In experiment [7], this molecule returned a normalised SPOT signal, Boehringer light units (BLU); mean over the file's lines of this peptide of 56.9.

B8: YGR245C 314-327 (peptide)
chain: KKKKKNGPGAPQGY
B8: the normalised SPOT signal, Boehringer light units (BLU); mean over the file's lines of this peptide in experiment [1] amounted to 329; in experiment [2] it was 159; in experiment [3], 106; in experiment [4], 329; in experiment [5] it was 20.2; in experiment [6] it was 56.7. In experiment [7], the normalised SPOT signal, Boehringer light units (BLU); mean over the file's lines of this peptide is 23.5.

B9: YDR527W 252-265 (peptide)
chain: KLHEKYFPDLPKEV
With B9, the normalised SPOT signal, Boehringer light units (BLU); mean over the file's lines of this peptide in experiment [1] was found to be 90.7; in experiment [2] it was 30.7; in experiment [3], 30.2; in experiment [4], 110; in experiment [5], 15.3; in experiment [6], 4.5. In addition, the normalised SPOT signal, Boehringer light units (BLU); mean over the file's lines of this peptide in experiment [7] was 57.3.

B10: YNL050C 247-260 (peptide)
chain: KKNKKKVPLNPLAK
B10: the normalised SPOT signal, Boehringer light units (BLU); mean over the file's lines of this peptide is 541 in experiment [1]; 540 in experiment [2]; 102 in experiment [3]; 523 in experiment [4]; 38 in experiment [5]; 179 in experiment [6]. The normalised SPOT signal, Boehringer light units (BLU); mean over the file's lines of this peptide in experiment [7] was 65.1.

B11: YNL155W 157-170 (peptide)
chain: KKIAKGDPKIPMQN
On to B11, for which the normalised SPOT signal, Boehringer light units (BLU); mean over the file's lines of this peptide in experiment [1] is 779; in experiment [2], 190; in experiment [3] it was 103; in experiment [4] it was 720; in experiment [5], 1; in experiment [6], 89.5. In experiment [7], this molecule returned a normalised SPOT signal, Boehringer light units (BLU); mean over the file's lines of this peptide of 147.

B12: YOR019W 147-160 (peptide)
chain: KIVRRDYPSTPVIV
Turning to B12, the normalised SPOT signal, Boehringer light units (BLU); mean over the file's lines of this peptide in experiment [1] amounted to 235; in experiment [2], 267; in experiment [3], 33.5; in experiment [4], 366; in experiment [5], 3.2; in experiment [6], 17.5. Also, the normalised SPOT signal, Boehringer light units (BLU); mean over the file's lines of this peptide in experiment [7] worked out at 206.

B13: YLR079W 164-177 (peptide)
chain: KKIIKDVPGTPSDK
B13: the normalised SPOT signal, Boehringer light units (BLU); mean over the file's lines of this peptide was 3810 in experiment [1]; 16.7 in experiment [2]; 155 in experiment [3]; 163 in experiment [4]; 5.6 in experiment [5]; 20 in experiment [6]. In experiment [7], this molecule returned a normalised SPOT signal, Boehringer light units (BLU); mean over the file's lines of this peptide of 65.3.

B14: YKL101W 860-873 (peptide)
chain: KKNDRPSPLKPIQH
As to B14, the normalised SPOT signal, Boehringer light units (BLU); mean over the file's lines of this peptide in experiment [1] is 2190; in experiment [2], 254; in experiment [3], 67.4; in experiment [4], 341; in experiment [5] it was 0; in experiment [6], 44.4. For the same molecule, the normalised SPOT signal, Boehringer light units (BLU); mean over the file's lines of this peptide in experiment [7] amounted to 49.2.

These data come from paper PMC314469, “Protein Interaction Networks by Proteome Peptide Scanning” (PLoS Biology, 2004).
